± gives the standard deviation of the averaged measurements.
Tested on: ATP
Assay: switch fluorescence ratio, 500 uM ATP over buffer (Cy3 cluster intensity, sum of 5 cycles each) (fold (ratio)); higher = stronger signal-on switching upon ATP binding; sequences stand for … in TCGTCGGCAGCGTCAGATGTGTATAAGAGACAGTTTTTTTTTTTTTTTTTTTTTTTTT…TC
Details: aptamer strand: ATP DNA aptamer (quencher-CACCTGGGGGAGTATTGCGGAGGAAGG + anchor), 100 nM annealed; ATP concentration: 500 uM
Procedure, shortened: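 After annealing to 100 nM quencher-labelled ATP aptamer, Cy3-labelled switching-strand clusters on a modified Illumina MiSeq flow-cell were imaged in selection buffer. A second image followed after 15 min with 500 uM ATP at 22 °C, and five such buffer/ATP cycles were done, each separated by NaOH stripping and re-annealing. The fluorescence ratio, averaged per switch-domain sequence, is summed target-cycle over summed buffer-cycle Cy3 intensity per cluster, with clusters outside 100-1000 RFU excluded.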
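Also: ATP exposure 15 min at 22 °C before imaging.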

| Sequence | switch fluorescence ratio |
| --- | --- |
| ACTTAAAATG | 1.06 ± 0.082 |
| ACTTAGAATA | 1.032 ± 0.0033 |
| ACTTAGTCTA | 1.023 ± 0.0066 |
| ACTTATAGGA | 1.03 ± 0.012 |
| ACTTATGGGA | 1.02 ± 0.019 |
| ACTTCAGATT | 0.995 ± 0.012 |
| ACTTCGAATA | 1.36 ± 0.07 |
| ACTTCTAGGC | 1.02 ± 0.058 |
| ACTTCTGGCT | 0.9717 ± 0.0054 |
| ACTTGATACG | 1.08 ± 0.063 |
| ACTTGCGCAG | 1.05 ± 0.043 |
| ACTTGGACTG | 1.03 ± 0.042 |
| ACTTGGCAAT | 4.347 ± 0.014 |
| ACTTGGGGGG | 0.994 ± 0.012 |
| ACTTGGTAT | 1 ± 0.07 |
| ACTTGTAGTA | 1.01 ± 0.012 |
| ACTTGTGGTC | 0.9952 ± 0.0084 |
| ACTTGTTCGT | 1.006 ± 0.0075 |
| ACTTTAGTTC | 1.01 ± 0.036 |
| ACTTTATCTA | 1.03 ± 0.061 |
| ACTTTATGCT | 1.01 ± 0.024 |
| ACTTTCTCAG | 1.077 ± 0.0049 |
| ACTTTGAA | 1.01 ± 0.037 |

| Sequence | switch fluorescence ratio |
| --- | --- |
| ACTTTGAGTG | 0.976 ± 0.015 |
| ACTTTGGGCA | 0.99606 ± 0.00098 |
| ACTTTGGGGG | 1.01 ± 0.042 |
| ACTTTGGTCT | 1.04 ± 0.051 |
| ACTTTGTCGG | 0.995 ± 0.038 |
| ACTTTTAAGG | 0.983 ± 0.024 |
| ACTTTTAGGT | 1.0193 ± 0.00024 |
| ACTTTTCGGC | 0.9915 ± 0.0073 |
| ACTTTTCGGG | 0.9921 ± 0.0056 |
| ACTTTTGAAA | 0.994 ± 0.014 |
| ACTTTTGGGG | 1.005 ± 0.0023 |
| ACTTTTGGGT | 0.9602 ± 0.0088 |
| ACTTTTTAGT | 0.986 ± 0.05 |
| ACTTTTTATA | 0.968 ± 0.082 |
| ACTTTTTGGG | 1.01 ± 0.065 |
| ACTTTTTTAG | 0.992 ± 0.019 |
| ACTTTTTTAT | 1.01 ± 0.018 |
| AGAAAAAAAG | 1.02 ± 0.03 |
| AGAAAAAAGC | 0.989 ± 0.015 |
| AGAAAAGGTG | 1.19 ± 0.13 |
| AGAAAAGTAC | 1.08 ± 0.076 |
| AGAAAAGTGG | 0.985 ± 0.019 |
| AGAAAAGTGT | 1.0276 ± 0.00047 |

| Sequence | switch fluorescence ratio |
| --- | --- |
| AGAAACCGTA | 1.1 ± 0.031 |
| AGAAACCGTT | 1.03 ± 0.021 |
| AGAAACGGGG | 1.08 ± 0.15 |
| AGAAAGGTTG | 0.984 ± 0.019 |
| AGAAATGAAT | 1.04 ± 0.024 |
| AGAAATTATA | 1.001 ± 0.0073 |
| AGAAATTGGT | 1.02 ± 0.029 |
| AGAAATTGTT | 0.999 ± 0.047 |
| AGAACTGGTT | 0.961 ± 0.034 |
| AGAAGAAGGG | 1.03 ± 0.017 |
| AGAAGAATTT | 1.02 ± 0.016 |
| AGAAGATCAG | 1.02 ± 0.015 |
| AGAAGATCTA | 0.9942 ± 0.0081 |
| AGAAGCCCAC | 1.09 ± 0.019 |
| AGAAGCGTGG | 1.01 ± 0.025 |
| AGAAGGCAAC | 1.015 ± 0.0017 |
| AGAAGGCTAG | 1.02 ± 0.05 |
| AGAAGGGCA | 0.983 ± 0.042 |
| AGAAGGTGCC | 1.05 ± 0.049 |
| AGAAGTACTA | 1.22 ± 0.036 |
| AGAAGTGGCG | 1.01 ± 0.03 |
| AGAAGTTTTG | 1.04 ± 0.054 |
| AGAATATTAA | 0.978 ± 0.013 |

| Sequence | switch fluorescence ratio |
| --- | --- |
| AGAATATTTT | 0.963 ± 0.011 |
| AGAATGGGAA | 1 ± 0.019 |
| AGAATGGGGA | 1.02 ± 0.0092 |
| AGAATGTTTT | 0.989 ± 0.033 |
| AGAATTAACT | 0.998 ± 0.025 |
| AGAATTATAT | 0.973 ± 0.023 |
| AGAATTGGGT | 0.9964 ± 0.0014 |
| AGACACGAAT | 0.9811 ± 0.0068 |
| AGACAGGGGT | 1.07 ± 0.098 |
| AGACAGGTAA | 1.01 ± 0.02 |
| AGACATATTT | 1 ± 0.027 |
| AGACATCTTT | 1.016 ± 0.0062 |
| AGACATGTTT | 0.981 ± 0.014 |
| AGACGAAAGA | 1.02 ± 0.027 |
| AGACGATTGT | 0.985 ± 0.018 |
| AGACGCAGGG | 1.034 ± 0.0053 |
| AGACGCAGTG | 0.9834 ± 0.0038 |
| AGACGCGGTG | 1.044 ± 0.0038 |
| AGACGGGATT | 1.03 ± 0.021 |
| AGACGGGCAC | 1.074 ± 0.0063 |
| AGACGGGGCC | 1.01 ± 0.018 |
| AGACGGGGTC | 0.9848 ± 0.0021 |
| AGACGGGTGC | 1.08 ± 0.074 |

| Sequence | switch fluorescence ratio |
| --- | --- |
| AGACGGTATG | 1.02 ± 0.0061 |
| AGACGGTTTG | 1.01 ± 0.017 |
| AGACGTTTTT | 1 ± 0.033 |
| AGACTACTAC | 1.12 ± 0.025 |
| AGACTAGCCA | 0.981 ± 0.081 |
| AGACTCTCG | 1.02 ± 0.098 |
| AGACTCTGGT | 0.969 ± 0.015 |
| AGACTGCCTG | 0.971 ± 0.077 |
| AGACTGGGGC | 1.03 ± 0.03 |
| AGACTTATTT | 1.01 ± 0.013 |
| AGAGAACTTG | 0.983 ± 0.1 |
| AGAGAAGAGA | 0.998 ± 0.023 |
| AGAGAATACG | 1 ± 0.031 |
| AGAGACAGCT | 0.994 ± 0.05 |
| AGAGACGGCA | 1.01 ± 0.032 |
| AGAGAGATGG | 0.977 ± 0.018 |
| AGAGAGCAAG | 1.07 ± 0.043 |
| AGAGATAGGG | 1.01 ± 0.019 |
| AGAGATGAGA | 1.02 ± 0.031 |
| AGAGATGAGG | 0.974 ± 0.042 |
| AGAGCATGAT | 1.03 ± 0.024 |
| AGAGCGGGCT | 1.04 ± 0.036 |
| AGAGCGTGGT | 0.999 ± 0.023 |

| Sequence | switch fluorescence ratio |
| --- | --- |
| AGAGGAGTCT | 0.9706 ± 0.0019 |
| AGAGGAGTGT | 0.943 ± 0.0098 |
| AGAGGCGAGG | 0.9913 ± 0.0013 |
| AGAGGCTCAG | 1.08 ± 0.069 |
| AGAGGCTTTT | 1.02 ± 0.046 |
| AGAGGGATGG | 0.9919 ± 0.0076 |
| AGAGGGGAAG | 1.005 ± 0.0087 |
| AGAGGGGTCT | 1.02 ± 0.043 |
| AGAGGGTTGG | 0.986 ± 0.022 |
| AGAGGGTTGT | 0.992 ± 0.031 |
| AGAGGGTTTG | 0.998 ± 0.025 |
| AGAGGTATCT | 0.9872 ± 0.0046 |
| AGAGGTCTGT | 0.986 ± 0.0056 |
| AGAGGTCTTG | 0.979 ± 0.029 |
| AGAGGTGACA | 0.999 ± 0.061 |
| AGAGGTTGCA | 0.994 ± 0.032 |
| AGAGGTTGCG | 0.955 ± 0.073 |
| AGAGTACGGC | 1.09 ± 0.017 |
| AGAGTAGGGT | 1 ± 0.0043 |
| AGAGTATTAG | 1 ± 0.013 |
| AGAGTCAACT | 1 ± 0.042 |
| AGAGTCATGT | 1.01 ± 0.029 |
| AGAGTCATTA | 0.995 ± 0.012 |

| Sequence | switch fluorescence ratio |
| --- | --- |
| AGAGTCGATT | 1.014 ± 0.0028 |
| AGAGTGGCAG | 1.01 ± 0.021 |
| AGAGTGGGGG | 0.971 ± 0.065 |
| AGAGTGTTTT | 1 ± 0.028 |
| AGAGTTTGGG | 0.988 ± 0.0099 |
| AGATAAAACG | 1.02 ± 0.076 |
| AGATAATCGC | 0.987 ± 0.03 |
| AGATAGGAG | 0.989 ± 0.027 |
| AGATATTCGG | 0.984 ± 0.07 |
| AGATATTTCG | 1.02 ± 0.028 |
| AGATCGGATA | 1.01 ± 0.024 |
| AGATCTACAT | 1.01 ± 0.016 |
| AGATGACTGA | 0.997 ± 0.048 |
| AGATGAGGTG | 1.01 ± 0.019 |
| AGATGCCGGA | 1 ± 0.027 |
| AGATGGGGCG | 0.955 ± 0.088 |
| AGATGGTACT | 0.9668 ± 4.6e-05 |
| AGATGGTCTG | 1.01 ± 0.032 |
| AGATGGTGGG | 1 ± 0.025 |
